This passage reports amount of fetuin giving essentially complete inhibition of SVH1C binding (pmoles per well) and percent inhibition of SVH1C binding results from US20150299255A1.

The assay addresses lectin SNA1 from Sambucus nigra (Sambucus nigra) (UniProt Q41358).

Sequence of lectin SNA1 from Sambucus nigra (Sambucus nigra) (Q41358 29-289 limits assumed, chain 1 of 2): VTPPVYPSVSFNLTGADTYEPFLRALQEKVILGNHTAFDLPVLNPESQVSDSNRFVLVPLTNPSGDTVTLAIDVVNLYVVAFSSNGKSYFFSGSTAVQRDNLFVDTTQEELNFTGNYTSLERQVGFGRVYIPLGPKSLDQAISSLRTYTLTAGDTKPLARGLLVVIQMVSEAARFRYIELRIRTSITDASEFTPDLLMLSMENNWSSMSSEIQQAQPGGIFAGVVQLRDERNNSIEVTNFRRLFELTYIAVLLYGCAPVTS
Sequence of lectin SNA1 from Sambucus nigra (Sambucus nigra) (Q41358 309-570 limits assumed, chain 2 of 2): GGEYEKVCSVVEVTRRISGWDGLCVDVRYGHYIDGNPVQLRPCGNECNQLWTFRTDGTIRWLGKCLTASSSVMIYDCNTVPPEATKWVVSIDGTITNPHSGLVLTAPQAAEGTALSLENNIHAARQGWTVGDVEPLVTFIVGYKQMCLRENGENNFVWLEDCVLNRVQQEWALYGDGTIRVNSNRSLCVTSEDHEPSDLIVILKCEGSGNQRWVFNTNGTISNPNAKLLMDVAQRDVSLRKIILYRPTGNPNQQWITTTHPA
Sequence of fetuin (P12763 19-359): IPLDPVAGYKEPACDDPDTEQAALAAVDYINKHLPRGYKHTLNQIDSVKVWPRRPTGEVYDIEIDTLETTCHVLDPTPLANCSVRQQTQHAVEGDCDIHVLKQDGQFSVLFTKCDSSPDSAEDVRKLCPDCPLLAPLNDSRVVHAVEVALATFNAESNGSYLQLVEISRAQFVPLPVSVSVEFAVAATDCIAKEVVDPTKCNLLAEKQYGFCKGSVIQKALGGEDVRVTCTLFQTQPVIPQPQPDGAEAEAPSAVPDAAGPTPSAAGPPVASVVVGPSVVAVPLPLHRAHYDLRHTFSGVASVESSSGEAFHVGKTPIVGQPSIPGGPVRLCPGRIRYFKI

Consider fetuin (from UniProt P12763 19-359), for which the amount of fetuin giving essentially complete inhibition of SVH1C binding (pmoles per well) was 500 and the percent inhibition of SVH1C binding at 100 pmoles fetuin per well was 50%.
